± gives the standard deviation of the averaged measurements.
System: ATP
Test: switch fluorescence ratio, 500 uM ATP over buffer (Cy3 cluster intensity, sum of 5 cycles each) (fold (ratio)); higher = stronger signal-on switching upon ATP binding; sequences stand for … in TCGTCGGCAGCGTCAGATGTGTATAAGAGACAGTTTTTTTTTTTTTTTTTTTTTTTTT…TC
Conditions: aptamer strand: ATP DNA aptamer (quencher-CACCTGGGGGAGTATTGCGGAGGAAGG + anchor), 100 nM annealed; ATP concentration: 500 uM
How it was run: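 Between each of five buffer/ATP cycles, the flow-cell was stripped with NaOH and re-annealed. Each cycle imaged Cy3-labelled switching-strand clusters, annealed to 100 nM quencher-labelled ATP aptamer on a modified Illumina MiSeq flow-cell, first in selection buffer and then after 15 min with 500 uM ATP at 22 °C. The fluorescence ratio is summed target-cycle over summed buffer-cycle Cy3 intensity per cluster, averaged per switch-domain sequence, with clusters outside 100-1000 RFU excluded.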
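Further: ATP exposure 15 min at 22 °C before imaging.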

| Sequence | switch fluorescence ratio |
| --- | --- |
| AGGCGTAAAT | 0.997 ± 0.029 |
| TCGTAATGGT | 1.05 ± 0.083 |
| GGCGCTGAGT | 1.017 ± 0.01 |
| ATTTGAGCTG | 0.947 ± 0.13 |
| TTTTGAAAAG | 1.01 ± 0.019 |
| TTATATAAGT | 1.02 ± 0.023 |
| GCGCAGGTAA | 1.04 ± 0.013 |
| TTGTGCAAGG | 1.34 ± 0.47 |
| CAGGGAAGGG | 1.01 ± 0.049 |
| GCTAGTGGGG | 0.999 ± 0.018 |
| TTCGAGGTTT | 0.982 ± 0.059 |
| GGTCTCTGGG | 1 ± 0.016 |
| TTGTGTTGCG | 1.03 ± 0.051 |
| GATTGTACTA | 0.998 ± 0.019 |
| ATGTATCGGC | 1.01 ± 0.06 |
| ATGGAACCGT | 1.02 ± 0.027 |
| CGGGCTTTGG | 1.01 ± 0.035 |
| TGAGGCGGGG | 0.9642 ± 0.0059 |
| AAGGGGGTCC | 1.03 ± 0.036 |
| GCTTCTGCGT | 1.02 ± 0.033 |
| AAGGCGACGT | 0.994 ± 0.015 |

| Sequence | switch fluorescence ratio |
| --- | --- |
| GTGGAAATGG | 1.01 ± 0.022 |
| TAATATGGGC | 1.02 ± 0.034 |
| AGTGGAGCTG | 1.02 ± 0.038 |
| CGCCGGGAGG | 0.989 ± 0.073 |
| TAATTAATGG | 1 ± 0.031 |
| TTTTCTACAG | 1 ± 0.022 |
| GCTGTGGATG | 1.02 ± 0.024 |
| AAGGGGGGCT | 0.996 ± 0.03 |
| CGGGGGGAGA | 1.03 ± 0.061 |
| ATTGTACGCT | 1.015 ± 0.0056 |
| AGGTGTGAGC | 1.03 ± 0.012 |
| ATTGGTTTTT | 1.07 ± 0.19 |
| TGTCGGGCCT | 1.03 ± 0.042 |
| CGAAGCGCCC | 4.36 ± 3 |
| GCGAGCGTCC | 1.025 ± 0.0023 |
| GGCGAGTTAC | 1.021 ± 0.0012 |
| GGTTGAAGGG | 1.014 ± 0.0091 |
| GTTGCGGGGT | 1.02 ± 0.029 |
| GATGGAGTAA | 1.08 ± 0.042 |
| TCTTAGGGGA | 0.998 ± 0.017 |
| CGGATATAAG | 1.01 ± 0.013 |

| Sequence | switch fluorescence ratio |
| --- | --- |
| GCTTAAAGAC | 1.1 ± 0.013 |
| TTCGGTAGGG | 0.926 ± 0.053 |
| AGGGTTGGCA | 0.998 ± 0.029 |
| ACAAATTGCG | 0.991 ± 0.027 |
| TTAGGGTGTT | 1 ± 0.07 |
| TAAGTGACAA | 1.05 ± 0.019 |
| CGAGGGGCTT | 0.997 ± 0.035 |
| GGGGGGAGCG | 1 ± 0.021 |
| GCTATGGTTA | 1 ± 0.013 |
| GTTTTTAGCA | 0.9719 ± 0.005 |
| ATGGGCTAGA | 0.9731 ± 0.0052 |
| TGCACCTTGG | 1.014 ± 0.0099 |
| TTTGACTTTA | 1.003 ± 0.0029 |
| ATGCGAGTGG | 1.01 ± 0.047 |
| GGATATATGG | 1 ± 0.025 |
| CGCTTATAGG | 1.03 ± 0.052 |
| TTTATTGGGA | 1.07 ± 0.13 |
| GATAGTGAAT | 0.962 ± 0.028 |
| GGTCCAATTA | 0.977 ± 0.015 |
